Measurements taken from patent US20220112288A1 (published 2022).

Biological target: T1, Rhesus macaque CD4-HIS (Acro Biosystems, Cat. CD4-C52H7) (rhesus macaque, UniProt P16003 26-390)
T1 construct: Bought reagent; also called Rhesus CD4; rhesus CD4-HIS; not shown: His tag
Test: BLI Octet, mAb on anti-mouse Fc sensor, rhesus CD4-HIS 25-100 nM, 1:1 global fit;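 also: purified antibodies captured at 10 µg/mL, rhesus CD4 analyte run as a three-concentration serial dilution, irrelevant antibody as reference control, one kinetic constant set per antibody from global fitting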

Binder | Kd [nM] | Response | koff [s⁻¹] | kon [M⁻¹ s⁻¹]
75110_01A06A (antibody, V domains shown, Tested as antibody purified from AlivaMab Mouse hybridoma supernatant (captured by anti-mouse IgG Fc)) VH: EVQLVESGGGLVQPGGSLRLSCAASGFTFSSYWMSWVRQAPGKGLEWVANINEDGNEKYYVDSVKGRLTISRDNAKNSLYLQMNSLRAEDTAVYFCAREGGQWLSLDYWGQGALVTVSS VL: DIQMTQSPSSVSASVGDRVSITCRASQGISSWLAWYQQKPGKAPKILIYGASSLQSGVPSRFSGSGSGTDFTLTISSLQPEDFATYYCQQANSFPWTFGQGTKVEIK | 7.8 | 0.39 | 0.001 | 130000
75110_02N15A (antibody, V domains shown, Tested as antibody purified from AlivaMab Mouse hybridoma supernatant (captured by anti-mouse IgG Fc)) VH: EVQLVESGGGLVQPGGSLRLSCAASGFTFSSYWMSWVRQAPGKGLEWVANINEDGNEKYYVDSVKGRFTISRDNAKNSLFLQMNSLRAEDTAVYFCAREGGQWLALDHWGQGALVTVSS VL: DIQMTQSPSSVSASVGDRVTITCRASQGISSWLAWYQQKPGKAPKFLISGASSLQSGVPSRFSGSGSGTDFTLTISSLQPEDFATYYCQQANSFPWTFGQGTKVEFK | 14 | 0.29 | 0.0026 | 190000
75110_04F22A (antibody, V domains shown, Tested as antibody purified from AlivaMab Mouse hybridoma supernatant (captured by anti-mouse IgG Fc)) VH: EVQLVESGGGLVQPGGSLRLSCAASGFTFSSYDIHWVRQATGKGLEWVSTIGTAGDTYYPGSVKGRFTISRENAKNSLYLQMNSLRAGDTAVYYCARGGYYYYGMDVWGQGTTVTVSS VL: EIVLTQSPGTLSLSPGERATLSCRASQSVYSSYLAWYQQKPGQAPRLLIYGASSRATGIPDRFSGSGSGTDFTLTISRLEPEDFAVYYCQQFGTSPFTFGPGTKVDIK | 7.2 | 0.04 | 0.0011 | 150000
75110_01G11A (antibody, V domains shown, Tested as antibody purified from AlivaMab Mouse hybridoma supernatant (captured by anti-mouse IgG Fc)) VH: EVQLVESGGGLVQPGGSLRLSCAASGFTFSSYDMHWVRQATGKGLEWVSTIGTAGDTYYPGSVKGRFTISRENARNSLFLQMNSLRAGDTAVYYCARGGDYYYGMDVWGQGTTVTVSS VL: EIVLTQSPGTLSLFPGERATLSCRASQNTYSSYLAWYQQKPGQAPRLLIYGASNRATGIPDRFSGSGSGTDFTLTISRLEPEDFAVYYCQQHGTSPFTFGPGTKVDIK | 64 | 0.03 | 0.0018 | 28000
75110_01N04A (antibody, V domains shown, Tested as antibody purified from AlivaMab Mouse hybridoma supernatant (captured by anti-mouse IgG Fc)) VH: EVQLVESGGGLVQPGGSLRLSCAASGFTFSNYDMHWVRQATGKGLEWVSTIGTAGDTYYPGSVKGRFTISRENAKNSLYLQMNSLRAGDTAVYYCARGGDFYYGLDVWGQGTTVTVSS VL: not shown | 0.035 | 0.02 | 0.0061 | 1.7e+08
75110_01J17A (antibody, V domains shown, Tested as antibody purified from AlivaMab Mouse hybridoma supernatant (captured by anti-mouse IgG Fc)) VH: EVQLVESGGGLVQPGGSLRLSCAASGFTFSSYDMHWVRQGTGKGLEWVSTIGTADDTYYPGSVKGRFTISRENAENSLYLQMNSLRAGDTAVYYCARGGDYYYGMDVWGQGTTVTVSS VL: EIVLAQSPGTLSLSPGERATLSCRASQSVYISYLAWYQQKPGQAPRLLIYGASSRATGIPDRFSGSGSGTDFTLTITRLEPEDFAVYYCQQFGSSPFTFGPGTKVDFK | 22 | 0.05 | 0.0017 | 79000
75110_01E08A (antibody, V domains shown, Tested as antibody purified from AlivaMab Mouse hybridoma supernatant (captured by anti-mouse IgG Fc)) VH: EVQLVESGGGLVQPGGSLRLSCAASGFTFNNYDMHWVRQATGKGLEWVSTIGTAGDTYYPASVKGRFTIYRENAKNSLYLQMNSLRAGDTAVYYCARGGDYYYGMDVWGQGTTVTVSS VL: not shown | 0.98 | 0.1 | 0.00014 | 140000
75110_01D24A (antibody, V domains shown, Tested as antibody purified from AlivaMab Mouse hybridoma supernatant (captured by anti-mouse IgG Fc)) VH: QVQLQQWGAGLLKPSETLSLTCAVYGGSFSGYYWSWIRQPPGKGLEWIGEINHSGSTNYNPSLKSRVTISVDTSENQFSLKLNSVTAADTAVYYCARLVNWFDPWGQGTLVTVSS VL: EIQMTQSPSSVSASVGDRVTITCRASQDISNWLAWYQQKPGKAPNLLIFAASSLQTGVPSRFSGSGSGTDFTLTISSLQPDDFATYYCQQANSFPYSFGQGTNLGIK | 340 | 0.08 | 0.064 | 190000

Results, then the binder that gave them:

Kd [nM] | Response | koff [s⁻¹] | kon [M⁻¹ s⁻¹] | Binder
12 | 0.1 | 0.002 | 160000 | 75110_03D16A (antibody, V domains shown, Tested as antibody purified from AlivaMab Mouse hybridoma supernatant (captured by anti-mouse IgG Fc)) VH: EVQLVESGGGLVQPGGSLRLSCAASGFTFSSYWMSWVRQAPGKGLEWVANINQDGGEKYYVDSVKGRFTISRDNAKNSLYLQMNSLRAEDTAVYYCVREGGQWLALDYWGQGTLVTVSS VL: DIQMTQSPSSVSASVGDRVTITCRASQGISSWLTWYQQKPGKAPKFLIYAASSLQSGVPSRFSGSGFGTDFTLTISSLQPEDFATYYCQQANSFPWTFGQGTKVEIK
48 | 0.17 | 0.0032 | 67000 | 75110_04K10A (antibody, V domains shown, Tested as antibody purified from AlivaMab Mouse hybridoma supernatant (captured by anti-mouse IgG Fc)) VH: EVQLVESGGGLVQPGGSLRLSCAASGFTFSSYWMSWVRQAPGKGLEWVANINQDGSEKYYVDSVKGRFTISRDNAKNSLYLQLNSLRAEDTAMYYCAREGGQWLSLDYWGQGTLVTVSS VL: DIQMTQSPSSVSASVGDRVTITCRASQGISSWLAWYQQKPGKAPKVLIYGVSSFQSGVPSRFSGSGSGTDFILTISSLQPEDFATYYCQQANSFPWTFGQGTKVEIK
72 | 0.08 | 0.016 | 220000 | 75110_03L12A (antibody, V domains shown, Tested as antibody purified from AlivaMab Mouse hybridoma supernatant (captured by anti-mouse IgG Fc)) VH: QVQLQQWGAGLLKPSETLSLTCAVYGGSFSGYYWSWIRQPPGKGLEWIGEINHSGSTNYNPSLKSRVTISVDTSENQFSLTLISVTAADTAVYYCVRLINWFDPWGQGTLVTVSS VL: DIQMTQSPSSVSASVGDRVTITCRASQDISNWLAWYQQKPGKAPKLLIFAASSLQSGVPSRFSGSGSGTDFTLTISSLQPDDFATYYCQQANSFPYTFGQGTNLGIK

Biological target: T2, Rhesus macaque CD4-HIS (Acro Biosystems, Cat. CD4-C52H7) (rhesus macaque, UniProt P16003 26-390)
T2 construct: Bought reagent; also called Rhesus CD4; rhesus CD4-HIS; not shown: His tag
Test: BLI (Octet Red384); Ab on anti-mouse Fc (AMC) sensor; rhesus CD4-HIS 100/50/25 nM; global 1:1 fit;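 also: antibodies loaded at 10 µg/mL, an unrelated mouse-derived antibody served as internal reference, curves fit over association and dissociation phases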

Kd [nM] | Response | koff [s⁻¹] | kon [M⁻¹ s⁻¹] | Binder
14 | 0.13 | 0.0027 | 190000 | 75110_14I16A (antibody, V domains shown, Tested as antibody purified from AlivaMab Mouse hybridoma supernatant (human variable domains, kappa; mouse Fc, captured on anti-mouse IgG Fc sensors); also called ADS75110 purified AMM Ab) VH: QVQLQESGPGLVKPSETLSLTCTVSNGSISSYYWSWIRQSAGKGLEWIGRIYTSGSTNYNPSLKSRVTMLVDTSKNQFSLKLSSVTAADTAVYYCARDREDYYYYGMDVWGQGTTVTVSS VL: DIQMTQSPSSLSASVGDRVTITCQASHDISNYLNWYQQKPGKAPKLLLYYASNLETGVPSRFSGSGSGTDFTFTITSLQPEDIGTYSCQQYDNLPLTFGGGTKVEIK
14 | 0.17 | 0.0021 | 150000 | 75110_14N19A (antibody, V domains shown, Tested as antibody purified from AlivaMab Mouse hybridoma supernatant (human variable domains, kappa; mouse Fc, captured on anti-mouse IgG Fc sensors); also called ADS75110 purified AMM Ab) VH: QVQLQESGPGLVKPSETLSLTCTVSGGSISRYYWSWIRQPAGKGLEWIGRICTSENPNYNPALKSRVTMSVDTSKNQFSLKLSSVTAADTAVYYCARELERLNYYGMDVWGQGTTVTVSS VL: DIQMTQFPSSLSASVGDRVTITCQASQDISNYLNWYQQKPGKAPKLLIYDASNLESGVPSRFSGRGSGTDFTFTISSLQPEDFATFYCQQYDTLPITFGQGTRLEIK
75 | 0.11 | 0.013 | 170000 | 75110_13P21A (antibody, V domains shown, Tested as antibody purified from AlivaMab Mouse hybridoma supernatant (human variable domains, kappa; mouse Fc, captured on anti-mouse IgG Fc sensors); also called ADS75110 purified AMM Ab) VH: QVQLQQWGAGLLKPSETLSLTCAVSGGSFSGYYWSWIRQPPGKGLEWIGEINHSGSTNCNPSLKSRVTISVDTSNNQFSLKLSSVTAADTAVYYCARVLNYFDYWGQGTLVTVSS VL: DIQMTQSPSSVSASVGDRVTITCRASPDIANWLAWYQQKPGKAPELLIYAASSLQSGVPSRFSGSGSGTDFTLTISSLQPEDFATYFCQQANSFPLTFGGGTKVESK
